Measured values as given in article PMC11326647, “In vitro reconstitution reveals membrane clustering and RNA recruitment by the enteroviral AAA+ ATPase 2C” (PLOS Pathogens, 2023).

Target: His6-MBP-tagged poliovirus 2C([change]) (residues 1-11, 41-329) (poliovirus type 1 Mahoney) (UniProt P03300)
Experiment: mass photometry

## His6-MBP-tagged poliovirus 2C([change]) (residues 1-11, 41-329) (from UniProt P03300 1128-1456) (natural protein)
  stoichiometry N: 2
